Source: patent US20230220056A1 (KOOKMIN UNIVERSITY INDUSTRY ACADEMY COOPERATION FOUNDATION, published 2023)

Columns and labels:
recombinant human GRP94 [1] = biological target: T1, recombinant human GRP94 (human, UniProt P14625 22-799, limits assumed); experiment: ELISA, 100 ng rhGRP94 coated per well, IgG 0-500 nM; no unit beside the value, concentration axis in nM and the dotted drop line meets it at about 0.5
T1 construct: also called rhGRP94; glucose-regulated protein 94
Description: (§1) Each well of 96-well plates was coated with 0.1 μg of recombinant human GRP94 (rhGRP94), blocked with 3% (w/v) bovine serum albumin (BSA) in phosphate buffered saline (PBS) for 2 hours at 37° C., and incubated with 100 μL of GRP94 targeting IgG (20 μg/mL) for 2 hours at 37° C. The plates were washed thrice with 0.05% PBS-T, and 100 μL of a 500:1 dilution of the secondary antibody anti-human Fc Ab (Sigma-Aldrich) was added to each well. Incubation at 37° C. for 1 hour was followed by three rounds of washing with 0.05% PBS-T. Then, 100 μL of 3,3′,5,5′-tetramethylbenzidine (1-step ultra TMB) substrate solution was added to each well. Finally, optical densities were measured at 450 nm using a microplate reader (Synergy H1, BioTek).
(§2) In this regard, each well of 96-well plates was coated with 100 ng of rhGRP94 and blocked with 3% (w/v) bovine serum albumin (BSA) in PBS at 37° C. for 2 hours. Next, the plates were incubated with a concentration gradient of 0 nM to 500 nM of each clone for the GRP94 IgGs at 37° C. for 2 hours. The use of a secondary antibody and the measurement of optical density were conducted as described for the ELISA.

recombinant human GRP94 [2] = biological target: T1, recombinant human GRP94; experiment: ELISA, 100 ng rhGRP94 coated per well, IgG 0-500 nM; no unit beside the value, concentration axis in nM and the dotted drop line meets it at about 0.1
Description: as §1, §2

recombinant human GRP94 [3] = biological target: T1, recombinant human GRP94; experiment: ELISA, 100 ng rhGRP94 coated per well, IgG 0-500 nM; no unit beside the value, concentration axis in nM and the dotted drop line meets it at about 0.15
Description: as §1, §2

recombinant human GRP94 [4] = biological target: T1, recombinant human GRP94; experiment: ELISA, 100 ng rhGRP94 coated per well, IgG 0-500 nM; no unit beside the value, concentration axis in nM and the dotted drop line meets it at about 1.2
Description: as §1, §2

T1 sequence (P14625 22-799 limits assumed): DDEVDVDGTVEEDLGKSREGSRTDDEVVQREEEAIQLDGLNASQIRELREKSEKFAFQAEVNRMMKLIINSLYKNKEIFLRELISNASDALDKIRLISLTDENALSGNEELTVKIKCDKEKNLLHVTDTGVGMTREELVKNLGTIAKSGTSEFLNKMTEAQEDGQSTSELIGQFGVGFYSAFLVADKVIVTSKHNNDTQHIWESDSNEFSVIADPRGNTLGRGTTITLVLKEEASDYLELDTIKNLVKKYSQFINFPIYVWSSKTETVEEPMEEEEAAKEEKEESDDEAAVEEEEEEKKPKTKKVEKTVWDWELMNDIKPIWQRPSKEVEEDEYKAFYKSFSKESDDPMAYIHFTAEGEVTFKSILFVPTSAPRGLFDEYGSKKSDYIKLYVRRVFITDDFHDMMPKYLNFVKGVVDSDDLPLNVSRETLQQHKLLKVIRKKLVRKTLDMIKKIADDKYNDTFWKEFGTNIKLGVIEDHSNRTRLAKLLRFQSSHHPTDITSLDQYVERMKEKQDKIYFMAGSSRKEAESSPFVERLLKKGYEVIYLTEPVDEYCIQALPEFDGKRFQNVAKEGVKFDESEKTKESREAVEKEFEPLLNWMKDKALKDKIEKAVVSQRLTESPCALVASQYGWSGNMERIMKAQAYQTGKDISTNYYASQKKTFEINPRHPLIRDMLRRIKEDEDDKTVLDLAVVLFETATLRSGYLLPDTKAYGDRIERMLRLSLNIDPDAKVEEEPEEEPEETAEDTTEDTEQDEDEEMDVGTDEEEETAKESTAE

B1: anti-GRP94 human IgG antibody B5 (antibody, V domains shown)
VH: EVQLLESGGGLVQPGGSLRLSCAASGFTFSNYYMSWVRQAPGKGLEWVSGIYPNSGSTYYADSVKGRFTISRDNSKNTLYLQMNSLRAEDTAVYYCARDPLHPARFPFDYWGQGTLVTVSS
VL: QSVLTQPPSASGTPGQRVTISCTGSSSNIGNNAVSWYQQLPGTAPKLLIYADSHRPSGVPDRFSGSKSGTSASLAISGLRSEDEADYYCGAWDASLNAYVFGGGTKLTVL
notes: Tested as whole human IgG made from the selected scFv's VH and VL genes in pcDNA3.1 / Expi293 cells; also called GRP94 IgG B5
Recombinant human GRP94 [1]
  Kd: 0.467 nM

B2: anti-GRP94 human IgG antibody E5 (antibody, V domains shown)
VH: EVQLLESGGGLVQPGGSLRLSCAASGFTFSNYAMSWVRQAPGKGLEWVSGISSSSGSTYYADSVKGRFTTSRDNSKNTLYLQMNSLRAEDTAVYYCARDRHPFSPNWFDYWGQGTLVTVSS
VL: QSVLTQPPSASGTPGQRVTISCSGSPSNIGSNTVTWYQQLPGTAPKLLIYADSHRPSGVPDRFSGSKSGTSASLAISGLRSEDEADYYCASWDDSLNGYVFGGGTKLTVL
notes: Tested as whole human IgG; also called GRP94 IgG E5
Recombinant human GRP94 [2]
  Kd: 0.0997 nM

B3: anti-GRP94 human IgG antibody 2H5 (antibody, V domains shown)
VH: EVQLLESGGGLVQPGGSLRLSCAASGFTFSGYAMSWVRQAPGKGLEWVSAISHGGSSKYYADSVKGRFTISRDNSKNTLYLQMNSLRAEDTAVYYCAKDLLSPLQSIGSYDDAMDVWGQGTLVTVSS
VL: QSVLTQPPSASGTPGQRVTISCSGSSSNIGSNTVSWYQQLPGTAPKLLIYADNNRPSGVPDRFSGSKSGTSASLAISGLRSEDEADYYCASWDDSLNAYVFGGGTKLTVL
notes: Tested as whole human IgG; also called GRP94 IgG 2H5
Recombinant human GRP94 [3]
  Kd: 0.142 nM

B4: anti-GRP94 human IgG antibody 3G7 (antibody, V domains shown)
VH: EVQLLESGGGLVQPGGSLRLSCAASGFTFSNYSMSWVRQAPGKGLEWVSGIYYGSGNKYYADSVKGRFTISRDNSKNTLYLQMNSLRAEDTAVYYCAKNLASFDYWGQGTLVTVSS
VL: QSVLTQPPSASGTPGQRVTISCSGSSSNIGSNSVNWYQQLPGTAPKLLIYSNSHRPSGVPDRFSGSKSGTSASLAISGLRSEDEADYYCGTWDSSLSGYVFGGGTKLTVL
notes: Tested as whole human IgG; also called GRP94 IgG 3G7
Recombinant human GRP94 [4]
  Kd: 1.21 nM
